Data taken from patent US20170362301A1 (Janssen / Centocor, published 2017).
Residue numbers refer to the chain shown, from its start. Numbers in names are those of the source.

B1: P54AR4-83v2 A3C, NEM conjugate (designed binder)
chain: LPCPKNLVVSEVTEDSARLSWDDPWAFYESFLIQYQESEKVGEAIVLTVPGSERSYDLTGLKPGTEYTVSIYGVHNVYKDTNMRGLPLSAIFTT
modifications: NEM on Cys 3
notes: His-tagged
B2: P54AR4-83v2 I45C, NEM conjugate (designed binder)
chain: B1 chain with C3A, I45C
modifications: NEM on Cys 45
notes: His-tagged
B3: P54AR4-83v2 M83C, NEM conjugate (designed binder)
chain: B1 chain with C3A, M83C
modifications: NEM on Cys 83
notes: His-tagged
B4: P54AR4-83v2 G42C, NEM conjugate (designed binder)
chain: B1 chain with C3A, G42C
modifications: NEM on Cys 42
notes: His-tagged
B5: P54AR4-83v2 N6C, NEM conjugate (designed binder)
chain: B1 chain with C3A, N6C
modifications: NEM on Cys 6
notes: His-tagged
B6: P54AR4-83v2 G73C, NEM conjugate (designed binder)
chain: B1 chain with C3A, G73C
modifications: NEM on Cys 73
notes: His-tagged
B7: P54AR4-83v2 L7C, NEM conjugate (designed binder)
chain: B1 chain with C3A, L7C
modifications: NEM on Cys 7
notes: His-tagged
B8: P54AR4-83v2 K5C, NEM conjugate (designed binder)
chain: B1 chain with C3A, K5C
modifications: NEM on Cys 5
notes: His-tagged
B9: P54AR4-83v2 E11C, NEM conjugate (designed binder)
chain: B1 chain with C3A, E11C
modifications: NEM on Cys 11
notes: His-tagged
B10: P54AR4-83v2 L88C, NEM conjugate (designed binder)
chain: B1 chain with C3A, L88C
modifications: NEM on Cys 88
notes: His-tagged
B11: P54AR4-83v2 G64C, NEM conjugate (designed binder)
chain: B1 chain with C3A, G64C
modifications: NEM on Cys 64
notes: His-tagged
B12: P54AR4-83v2 D22C, NEM conjugate (designed binder)
chain: B1 chain with C3A, D22C
modifications: NEM on Cys 22
notes: His-tagged
B13: P54AR4-83v2 K40C, NEM conjugate (designed binder)
chain: B1 chain with C3A, K40C
modifications: NEM on Cys 40
notes: His-tagged
B14: P54AR4-83v2 G51C, NEM conjugate (designed binder)
chain: B1 chain with C3A, G51C
modifications: NEM on Cys 51
notes: His-tagged
B15: P54AR4-83v2 P2C, NEM conjugate (designed binder)
chain: B1 chain with P2C, C3A
modifications: NEM on Cys 2
notes: His-tagged
B16: P54AR4-83v2 D80C, NEM conjugate (designed binder)
chain: B1 chain with C3A, D80C
modifications: NEM on Cys 80
notes: His-tagged
B17: P54AR4-83v2 E43C, NEM conjugate (designed binder)
chain: B1 chain with C3A, E43C
modifications: NEM on Cys 43
notes: His-tagged
B18: P54AR4-83v2 P24C, NEM conjugate (designed binder)
chain: B1 chain with C3A, P24C
modifications: NEM on Cys 24
notes: His-tagged
B19: P54AR4-83v2 E29C, NEM conjugate (designed binder)
chain: B1 chain with C3A, E29C
modifications: NEM on Cys 29
notes: His-tagged
B20: P54AR4-83v2 N76C, NEM conjugate (designed binder)
chain: B1 chain with C3A, N76C
modifications: NEM on Cys 76
notes: His-tagged
B21: P54AR4-83v2 N82C, NEM conjugate (designed binder)
chain: B1 chain with C3A, N82C
modifications: NEM on Cys 82
notes: His-tagged
B22: P54AR4-83v2 D23C, NEM conjugate (designed binder)
chain: B1 chain with C3A, D23C
modifications: NEM on Cys 23
notes: His-tagged
B23: P54AR4-83v2 E39C, NEM conjugate (designed binder)
chain: B1 chain with C3A, E39C
modifications: NEM on Cys 39
notes: His-tagged
B24: P54AR4-83v2 A26C, NEM conjugate (designed binder)
chain: B1 chain with C3A, A26C
modifications: NEM on Cys 26
notes: His-tagged
B25: P54AR4-83v2 F31C, NEM conjugate (designed binder)
chain: B1 chain with C3A, F31C
modifications: NEM on Cys 31
notes: His-tagged
B26: P54AR4-83v2 P4C, NEM conjugate (designed binder)
chain: B1 chain with C3A, P4C
modifications: NEM on Cys 4
notes: His-tagged
B27: P54AR4-83v2 F27C, NEM conjugate (designed binder)
chain: B1 chain with C3A, F27C
modifications: NEM on Cys 27
notes: His-tagged
B28: P54AR4-83v2 G85C, NEM conjugate (designed binder)
chain: B1 chain with C3A, G85C
modifications: NEM on Cys 85
notes: His-tagged
B29: P54AR4-83v2 A90C, NEM conjugate (designed binder)
chain: B1 chain with C3A, A90C
modifications: NEM on Cys 90
notes: His-tagged
B30: P54AR4-83v2 K79C, NEM conjugate (designed binder)
chain: B1 chain with C3A, K79C
modifications: NEM on Cys 79
notes: His-tagged
B31: P54AR4-83v2 I91C, NEM conjugate (designed binder)
chain: B1 chain with C3A, I91C
modifications: NEM on Cys 91
notes: His-tagged; also called 191C
B32: P54AR4-83v2 H75C, NEM conjugate (designed binder)
chain: B1 chain with C3A, H75C
modifications: NEM on Cys 75
notes: His-tagged
B33: P54AR4-83v2 E14C, NEM conjugate (designed binder)
chain: B1 chain with C3A, E14C
modifications: NEM on Cys 14
notes: His-tagged
B34: P54AR4-83v2 L47C, NEM conjugate (designed binder)
chain: B1 chain with C3A, L47C
modifications: NEM on Cys 47
notes: His-tagged
B35: P54AR4-83v2 E53C, NEM conjugate (designed binder)
chain: B1 chain with C3A, E53C
modifications: NEM on Cys 53
notes: His-tagged
B36: P54AR4-83v2 G60C, NEM conjugate (designed binder)
chain: B1 chain with C3A, G60C
modifications: NEM on Cys 60
notes: His-tagged
B37: P54AR4-83v2 D15C, NEM conjugate (designed binder)
chain: B1 chain with C3A, D15C
modifications: NEM on Cys 15
notes: His-tagged
B38: P54AR4-83v2 L32C, NEM conjugate (designed binder)
chain: B1 chain with C3A, L32C
modifications: NEM on Cys 32
notes: His-tagged
B39: P54AR4-83v2 L86C, NEM conjugate (designed binder)
chain: B1 chain with C3A, L86C
modifications: NEM on Cys 86
notes: His-tagged
B40: P54AR4-83v2 K62C, NEM conjugate (designed binder)
chain: B1 chain with C3A, K62C
modifications: NEM on Cys 62
notes: His-tagged

Experiments:
[1] = molecular target: T1, EGFR (form in the assay not stated) (human, UniProt P00533 25-645, limits assumed); experiment: ELISA, NEM conjugate 10 nM
[2] = molecular target: T1, EGFR (form in the assay not stated); experiment: ELISA, NEM conjugate 500 nM
[3] = molecular target: T1, EGFR (form in the assay not stated); experiment: ELISA, NEM conjugate 100 nM

Row | Binder | binding ratio vs parent P54AR4-83v2 [1] | binding ratio vs parent P54AR4-83v2 [2] | binding ratio vs parent P54AR4-83v2 [3]
1 | B1 | 0.34 ratio | 0.82 ratio | 0.88 ratio
2 | B2 | 0.91 ratio | 0.93 ratio | 1.04 ratio
3 | B3 | 0.07 ratio | 0.24 ratio | 0.04 ratio
4 | B4 | 0.84 ratio | 0.9 ratio | 0.99 ratio
5 | B5 | 0.76 ratio | 0.89 ratio | 1.01 ratio
6 | B6 | 0 ratio | 0.21 ratio | 0.02 ratio
7 | B7 | 0.35 ratio | 0.9 ratio | 1 ratio
8 | B8 | 0.61 ratio | 0.92 ratio | 1.06 ratio
9 | B9 | 0.9 ratio | 0.95 ratio | 1.08 ratio
10 | B10 | 0.95 ratio | 0.97 ratio | 1.03 ratio
11 | B11 | 1.28 ratio | 1.36 ratio | 1.42 ratio
12 | B12 | 0.84 ratio | 0.9 ratio | 1.02 ratio
13 | B13 | 0.88 ratio | 0.86 ratio | 0.95 ratio
14 | B14 | 0.88 ratio | 0.92 ratio | 1.03 ratio
15 | B15 | 0 ratio | 0.01 ratio | 0 ratio
16 | B16 | 0.7 ratio | 0.91 ratio | 0.97 ratio
17 | B17 | 0.68 ratio | 0.92 ratio | 1.04 ratio
18 | B18 | 0.45 ratio | 0.83 ratio | 0.85 ratio
19 | B19 | 0.89 ratio | 0.93 ratio | 1.07 ratio
20 | B20 | 0.75 ratio | 0.91 ratio | 0.97 ratio

Row | Binder | binding ratio vs parent P54AR4-83v2 [1] | binding ratio vs parent P54AR4-83v2 [2] | binding ratio vs parent P54AR4-83v2 [3]
21 | B21 | 0.56 ratio | 0.96 ratio | 0.97 ratio
22 | B22 | 0.02 ratio | 0.4 ratio | 0.2 ratio
23 | B23 | 0.9 ratio | 0.9 ratio | 1 ratio
24 | B24 | 0.95 ratio | 0.95 ratio | 1.06 ratio
25 | B25 | 0.04 ratio | 0.62 ratio | 0.34 ratio
26 | B26 | 0.02 ratio | 0.12 ratio | 0.02 ratio
27 | B27 | 0 ratio | 0.23 ratio | 0.07 ratio
28 | B28 | 0.19 ratio | 0.29 ratio | 0.02 ratio
29 | B29 | 0.94 ratio | 1.01 ratio | 1.05 ratio
30 | B30 | 0.9 ratio | 0.93 ratio | 0.99 ratio
31 | B31 | 0.9 ratio | 1 ratio | 1.01 ratio
32 | B32 | 0.07 ratio | 0.25 ratio | 0.19 ratio
33 | B33 | 1.11 ratio | 1.15 ratio | 1.27 ratio
34 | B34 | 0.92 ratio | 0.91 ratio | 1.02 ratio
35 | B35 | 0.91 ratio | 0.91 ratio | 1.02 ratio
36 | B36 | 0.86 ratio | 0.93 ratio | 1.02 ratio
37 | B37 | 0.98 ratio | 0.97 ratio | 1.09 ratio
38 | B38 | 0.87 ratio | 0.91 ratio | 1.01 ratio
39 | B39 | 0.77 ratio | 0.92 ratio | 0.96 ratio
40 | B40 | 0.64 ratio | 0.61 ratio | 0.73 ratio
